Measured values reported in patent US20030130484A1, “Inhibitors and disassemblers of fibrillogenesis” (priority 2001, published 2003).
Where two headings read alike, the source gives them in different places.

How the values were obtained:
[1] = target: human Aβ1-40 peptide (human); assay: cell-based or functional assay
[2] = target: human Aβ1-40 peptide (human); assay: cell-based or functional assay; remark: listed apart in the source
[3] = target: Aβ16-22m; assay: size exclusion chromatography, self-association

| Binder | IC50 of inhibition of fibrillogenesis (thioflavin fluorescence) (inhibitor:Aβ40 ratio) [1] | Inhibition of Fibrillogenesis IC50 (thioflavin fluorescence) (inhibitor:Aβ40 molar ratio) [1] | Inhibition of Fibrillogenesis ICmax [1] [%] | Inhibition of Fibrilogenesis IC50 (µM) [1] [µM] | Inhibition of Fibrilogenesis ICmax (%) [1] [%] | ratio giving complete elimination of thioflavin fluorescence (inhibitor:Aβ40 ratio) [1] | Inhibition IC50 (thioflavin T fluorescence) (inhibitor to Aβ40 molar ratio) [1] | Inhibition ICmax [1] [%] | Inhibition IC50 (thioflavin T assay) (inhibitor:Aβ1-40 ratio) [2] | percent oligomer (% oligomer (at 0.1 mg/ml)) [3] | percent oligomer (% oligomer (at 6 mg/ml)) [3] | molar excess giving complete elimination of thioflavin fluorescence (fold molar excess) [1] | Inhibition ICmax [2] [%] |
| --- | --- | --- | --- | --- | --- | --- | --- | --- | --- | --- | --- | --- | --- |
| ELVFFAK (modifications not checked) [Aβ16-22mR] | 9 | 7.8 | 100 | 7.8 | 100 | 50 | – | – | – | – | – | – | – |
| KLVFF (modifications not checked) [Aβ16-20m] | – | – | – | 0.4 | 100 | – | 6.5 | 100 | 6.9 | – | – | – | – |
| KLVFFAE (modifications not checked) [Aβ16-22m] | 4 | 4.2 | 100 | 4.2 | 100 | – | – | – | – | 1 to 91 | 1 to 91 | 30 | – |
| KLVFF (modifications not checked) [Aβ16-20e] | – | – | – | – | – | – | – | – | 3.7 | – | – | – | 100 |
| KLVFF (modifications not checked) [Aβ16-20] | – | – | – | – | – | – | 5.3 | 89 | 9.7 | – | – | – | 100 |
